Measured values taken from paper PMC5839794 (The Journal of Cell Biology, 2018).

Molecular target: T1, GST-ZW10 (full length GST-tagged human ZW10) (human, UniProt O43264 1-779)
T1 sequence (looked up): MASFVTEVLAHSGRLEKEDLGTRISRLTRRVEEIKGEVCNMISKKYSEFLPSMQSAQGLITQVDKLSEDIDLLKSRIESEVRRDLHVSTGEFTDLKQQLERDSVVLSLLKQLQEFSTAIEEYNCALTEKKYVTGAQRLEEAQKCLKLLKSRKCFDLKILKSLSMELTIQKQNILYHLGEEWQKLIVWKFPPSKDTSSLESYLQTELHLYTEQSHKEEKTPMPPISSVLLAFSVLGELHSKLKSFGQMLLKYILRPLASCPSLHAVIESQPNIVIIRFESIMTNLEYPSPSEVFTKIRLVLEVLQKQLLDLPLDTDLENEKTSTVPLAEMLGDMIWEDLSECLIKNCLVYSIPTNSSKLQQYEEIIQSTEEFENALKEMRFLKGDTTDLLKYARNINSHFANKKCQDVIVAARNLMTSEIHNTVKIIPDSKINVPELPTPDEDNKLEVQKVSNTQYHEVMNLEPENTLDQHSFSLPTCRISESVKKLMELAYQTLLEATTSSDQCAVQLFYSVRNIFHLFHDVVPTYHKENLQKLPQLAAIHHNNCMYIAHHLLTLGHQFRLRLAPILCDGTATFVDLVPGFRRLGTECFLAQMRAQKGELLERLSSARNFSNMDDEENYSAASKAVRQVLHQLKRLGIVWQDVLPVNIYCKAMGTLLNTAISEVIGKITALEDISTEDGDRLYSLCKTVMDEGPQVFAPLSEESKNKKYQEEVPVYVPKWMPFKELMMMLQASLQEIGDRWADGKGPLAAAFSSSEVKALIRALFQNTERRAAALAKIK
Experiment: pull-down

- binding result: binds
B1: His-tagged human Chmp4c (natural protein, UniProt Q96CF2 1-233, looked up)
chain: MSKLGKFFKGGGSSKSRAAPSPQEALVRLRETEEMLGKKQEYLENRIQREIALAKKHGTQNKRAALQALKRKKRFEKQLTQIDGTLSTIEFQREALENSHTNTEVLRNMGFAAKAMKSVHENMDLNKIDDLMQEITEQQDIAQEISEAFSQRVGFGDDFDEDELMAELEELEQEELNKKMTNIRLPNVPSSSLPAQPNRKPGMSSTARRSRAASSQRAEEEDDDIKQLAAWAT
